Assay results: patent US20170253633A1 (IMMATICS BIOTECHNOLOGIES, published 2017)
Non-standard residues stand in square brackets, D forms with d. No end group written: not given here. pS = N[C@@H](COP(=O)(O)O)C(=O)O

Molecular target: T1, HLA-A*02:01 (human)
T1 construct: MHC monomer first loaded with a UV-sensitive peptide, which is cleaved by UV and exchanged with the test peptide; captured on streptavidin plates; also called peptide-receptive MHC molecules
Test: UV-ligand exchange + anti-b2m ELISA; +++ = peptide exchange yield >50
Text: (§1) Candidate peptides for T cell based therapies according to the present invention were further tested for their MHC binding capacity (affinity). The individual peptide-MHC complexes were produced by UV-ligand exchange, where a UV-sensitive peptide is cleaved upon UV-irradiation, and exchanged with the peptide of interest as analyzed. Only peptide candidates that can effectively bind and stabilize the peptide-receptive MHC molecules prevent dissociation of the MHC complexes. To determine the yield of the exchange reaction, an ELISA was performed based on the detection of the light chain (β2m) of stabilized MHC complexes. The assay was performed as generally described in Rodenko et al. (Rodenko et al., 2006).
(§2) 96 well MAXISorp plates (NUNC) were coated over night with 2 ug/ml streptavidin in PBS at room temperature, washed 4× and blocked forth at 37° C. in 2% BSA containing blocking buffer. Refolded HLA-A*02:01/MLA-001 monomers served as standards, covering the range of 15-500 ng/ml. Peptide-MHC monomers of the UV-exchange reaction were diluted 100 fold in blocking buffer. Samples were incubated for 1 h at 37° C., washed four times, incubated with 2 ug/ml HRP conjugated anti-β2m for 1 h at 37° C., washed again and detected with TMB solution that is stopped with […]. Absorption was measured at 450 nm. Candidate peptides that show a high exchange yield (preferably higher than 50%, most preferred higher than 75%) are generally preferred for a generation and production of antibodies or fragments thereof, and/or T cell receptors or fragments thereof, as they show sufficient avidity to the MHC molecules and prevent dissociation of the MHC complexes.

peptide exchange yield | Binder
50 to 75% | ALDPASISV (gene: DCUN1D1)
50 to 75% | SLQSFIHGV (gene: TMC7)
50 to 75% | RVISSVISV (gene: ELTD1)
50 to 75% | LLQEGEVYSA (gene: PRPF8)
50 to 75% | ILDEMRAQL (gene: OAS3)
50 to 75% | GLYEGLDWL (genes: ARF3, TRIM23, ARF1, ARF4)
50 to 75% | TVGPGLLGV (gene: VWF)
50 to 75% | ALADGVPVAL (gene: AP5B1)
50 to 75% | SLDKGTLYI (gene: PLBD1)
50 to 75% | AVVSSVNTV (gene: SNCG)

Second part, the binder before the results:

Binder | peptide exchange yield
NLDAATYQV (gene: SLC35A3) | 50 to 75%
FLI[pS]LIISV (gene: TAS2R9) [FLIJLIISV] | 50 to 75%
NLHNSYYSV (gene: CCNG2) | 50 to 75%
KLTNGIWVL (gene: AP1B1) | 50 to 75%
YLIGLDPENLAL (gene: CROT) | 50 to 75%
HLLDSKVPSV (gene: ITGB4) | 50 to 75%
FLDPATPRV (gene: TGIF1) | 50 to 75%
YLFPETEFI (gene: TBX3) | 50 to 75%
ALIGDDVGL (gene: C17orf85) | 50 to 75%
ILLDTPLFLL (gene: SERHL2) | 50 to 75%
ALLDEQQVNVLL (gene: ID1) | 50 to 75%
GMTELYFQL (gene: PRKDC) | 50 to 75%
ALASLENHV (gene: TRIM33) | 50 to 75%
SLFTGLRSI (genes: DUOX2, DUOX1) | 50 to 75%
ALSFSSSAGPGLLKA (gene: KRT7) | 50 to 75%
LLDLIQTKV (genes: AP2B1, AP1B1) | 50 to 75%
QMFEGQILDV (gene: AIM1L) | 50 to 75%

Molecular target: T1, HLA-A*02:01
Test: UV-ligand exchange + anti-b2m ELISA; ++++ = peptide exchange yield >75%
Text: as §1, §2

peptide exchange yield | Binder
> 75% | SLLRVGWSV (genes: BSCL2, HNRNPUL2)
> 75% | FVFEPPPGV (gene: DYNC1H1)
> 75% | ALLDGRVQL (gene: AGRN)
> 75% | GLDPLGYEIQL (gene: NUP107)
> 75% | TLTSKLYSL (gene: UQCR10)
> 75% | KLWGQSIQL (gene: SWT1)
> 75% | ILTSIQSLL (genes: UBE2A, UBE2B)
> 75% | GLAHFVNEI (gene: ZMYM2)
> 75% | YLDEIPPKFSM (gene: TACSTD2)
> 75% | FLDDGNQMLL (gene: DYNC2H1)
> 75% | VLKVFLENV
> 75% | GLIDSLMAYV (gene: PKP1)
> 75% | NLAGVYSEV (gene: DRG1)
> 75% | GLALLYSGV (gene: ATP6V0B)
> 75% | VILDKYYFL (gene: TMPRSS4)
> 75% | ALFPHLLQPVL (gene: CSE1L)

Continued, binder first:

Binder | peptide exchange yield
YLARIQGFQV (gene: STAU2) | > 75%
SLDVVNLLV (gene: ANKRD50) | > 75%
SLSDVRVIV (gene: RALGAPA2) | > 75%
IITDLLRSV (gene: FUBP1) | > 75%
SMFGAGLTV (gene: ATP6V0B) | > 75%
IQDPVIFYV (gene: GPR126) | > 75%
SLFDGIATGL (gene: DNMT3A) | > 75%
SIAAYNPVV (gene: DHRS2) | > 75%
ILLQASVQV (gene: TMPRSS4) | > 75%
YTLSKTEFL (gene: S100A11) | > 75%
FLIESKLLSL (gene: DRC1) | > 75%
SLLGGITVV (gene: SPAG9) | > 75%
YLPDSLTQL (gene: LRRC1) | > 75%
ILEPSLYTV (gene: COPZ1) | > 75%
FIPDFAVAI (gene: COL6A3) | > 75%
FLTPPLLSV (gene: AP2A1) | > 75%
WLSTSIPEA (gene: FASN) | > 75%
KVFGGFQVV (gene: HES1) | > 75%
GVALTVTGV (gene: FLOT2) | > 75%
TLGVIPESV (gene: USP48) | > 75%
GLWHGMFANV (gene: DIP2B) | > 75%
YILEGEPGKV (gene: SRP68) | > 75%
AMAELRVVV (gene: CYP4F22) | > 75%
